In experiment [1] the target is Human erythropoietin (Epoetin β) (human) (UniProt P01588). In words: SPR; EPO immobilised by amine coupling on a ProteOn GLH chip (up to 3 000 RU); S100 or CaM as analyte (0.25–4 μM); 25 °C; 10 mM HEPES, 150 mM NaCl, 0.05% TWEEN 20, pH 7.4, 1 mM CaCl2; heterogeneous ligand model, values averaged over analyte concentrations (n = 5). (In general: SPR reads the build-up and loss of mass on a sensor chip optically.)

Experiment [2] addresses S100P (monomeric) (Homo sapiens) (UniProt P25815). As to conditions: cited from earlier work.
Another experiment addresses S100P (Homo sapiens) (UniProt P25815). Particulars: cited from earlier work.

By Kd is commonly meant the constant that tells how readily two partners part at equilibrium.

Chain of Human S100A2 protein (P29034 4-98): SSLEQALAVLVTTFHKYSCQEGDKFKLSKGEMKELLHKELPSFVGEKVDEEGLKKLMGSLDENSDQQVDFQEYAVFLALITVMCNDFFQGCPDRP
Chain of S100P (Homo sapiens) (P25815 whole entry): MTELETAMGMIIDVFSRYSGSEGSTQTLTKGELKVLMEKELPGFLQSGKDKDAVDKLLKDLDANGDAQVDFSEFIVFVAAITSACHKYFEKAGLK
Chain of S100P (monomeric) (Homo sapiens) (P25815 whole entry): as above
Chain of S100P (P25815 whole entry): as above
Chain of interleukin 11 (P20809 22-199): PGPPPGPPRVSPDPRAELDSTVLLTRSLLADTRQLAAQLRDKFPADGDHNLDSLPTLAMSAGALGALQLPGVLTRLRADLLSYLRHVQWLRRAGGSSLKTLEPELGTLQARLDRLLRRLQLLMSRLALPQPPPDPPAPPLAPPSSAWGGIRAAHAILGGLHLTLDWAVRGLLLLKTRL

In experiment [1], “Human S100A2 protein (from UniProt P29034 4-98) (natural protein)” returned a Kd1 (heterogeneous ligand model, ligand population L1) of 81 nM; a Kd2 (heterogeneous ligand model, ligand population L2) of 1.2 µM; a ka1 (heterogeneous ligand model, ligand population L1) of 2200 M⁻¹ s⁻¹; a ka2 (heterogeneous ligand model, ligand population L2) of 10000 M⁻¹ s⁻¹. Further, in experiment [1], the kd1 (heterogeneous ligand model, ligand population L1) was 0.00018 s⁻¹ and the kd2 (heterogeneous ligand model, ligand population L2) was determined as 0.012 s⁻¹.
For interleukin 11 (from UniProt P20809), the Kd in experiment [2] was 1 nM.
As to S100P (from UniProt P25815), the Kd with S100P (Homo sapiens) is 64 nM.

These data come from publication PMC8773746.
